{"source": "patent US8993725B2", "about": "“Notch-based fusion proteins and uses thereof” (The Trustees of Columbia University in the City of New York, priority 2004, dated 2015)", "key": {"[1]": {"test_system": "Notch signaling (CBF1 promoter activity) in HUVEC", "assay": "VEGF-induced Notch signaling, CBF1 promoter / CSL-luciferase reporter activity in HUVEC", "format": "cell-based, Human", "settings": "for Inhibition of VEGF-induced CBF1 promoter activity: 40 MOI for each adenovirus; for Effect on VEGF-induced CBF1 promoter / CSL luciferase activity: co-infection (co-transduction) with Ad-VEGF in HUVEC", "experimental": "To determine VEGF-induced Notch signaling, HUVEC which were infected with adenovirus were used. HUVEC plated 1-day prior in 6 well plates at 8.0×10^5 were infected with either Ad-LacZ as control or Ad-VEGF at indicated m.o.i. in the presence or absence of Ad-N1ECD/Fc. Two days after infection, infected HUVEC were re-seeded into 24-well plate at 1.5×10^5 cell in triplicate and cultured for 24 hours, and then transfected with 12.5 ng pRL-SV40 (Promega) and 137.5 ng pGA981-6 using Effectene transfection reagent (Qiagen). Cells were harvested either 1 or 2 days post-transfection and luciferase activity was determined by using the Dual-Luciferase® Reporter Assay System (Promega).\nOne can measure Notch signaling function by measuring transcriptional activity of CBF1 promoter, which is activated by binding of Notch-IC to CBF1. We measured CBF1 promoter activity in HUVEC which was infected with adenovirus encoding VECF-165 at different MOI (FIG. 6). Induction of CBF1 promoter was clearly detected in Ad-VEGF-infected HUVEC, compared to Ad-LacZ-infected cells in the MOI dependent manner. […] Thus VEGF induced Notch signaling activity."}, "Ad-VEGF-infected HUVEC": {"test_system": "Ad-VEGF-infected HUVEC", "assay": "VEGF-induced budding (sprouting assay) of Ad-VEGF-HUVEC on collagen gel", "format": "cell-based, Human", "settings": "for Inhibition of VEGF-induced HUVEC budding: co-infection with Ad-VEGF; for Inhibition of VEGF-induced HUVEC budding / Effect of fusion protein adenovirus alone on HUVEC morphology / bud formation: collagen gel; for Effect of fusion protein adenovirus alone on HUVEC morphology / bud formation: without Ad-VEGF", "experimental": "For making collagen gels, an ice-cold solution of porcine type I collagen (Nitta gelatin, Tokyo, Japan) was mixed with 10×RPMI1640 medium and neutralization buffer at the ratio of 8:1:1. 400 μl aliquots of collagen gel were then added to 24-well plates and allowed to gel for at least 1 hour at 37° C. Following adenoviral infection (above), HUVEC was harvested and plated at 1.3×10^5 cells per well onto the top of the collagen gel in 24-well plates in 0.8 ml of EGM2 medium. HUVEC became nearly confluent 48 hours after plating. After seeding, medium was changed every 2 days for 1 week. Sprouting was observed and photographs taken after 8 days with an Olympus digital camera mounted to a microscope. For quantification of the number of sprouts, 5 fields per each well were randomly selected and sprouting was counted under microscopy in a blind manner by two investigators.\nHUVEC (Human Umbilical Vein Endothelial cells) growth are dependent on VEGF (FIGS. 26A and 26B) and differentiation-related biological responses, such as sprouting, and can be evaluated at an early stage (7). At first, we examined whether adenovirally transduced VEGF induced both Notch and Notch ligand expression in HUVEC cultured with complete medium containing bFGF (FIG. 22A), as reported (5). […] Transduced-VEGF also activated Notch signaling in a dose-dependent manner by measuring CSL-luciferase reporter activity (FIG. 22B), which was transactivated with Notch signaling (8). Notch signaling was activated at a higher dosage of Ad-VEGF, compared to proliferation (FIG. 26A). […] Since Notch mutants lacking both transmembrane and cytoplasmic domains functioned as dominant negative inhibitors against Notch signaling (9), we made a Notch-based fusion protein or decoy (N1ECDFc) to inhibit Notch signaling (FIG. 22D). […] Then, we examined whether N1ECDFc inhibited activation of Notch signaling by transduced VEGF in HUVEC (FIG. 22G). […] Gerhardt et al. reported that VEGF controlled angiogenesis in the early postnatal retina by guiding filopodia extension at the tips of the vascular sprouts (10). During angiogenic sprouting, the formation of a specialized endothelial cell making filopodia projections among quiescent endothelial cells, might be one of the early events. Here we mean formation of a single endothelial cell making filopodia protrusions as budding. Budding of the primary endothelial cells is induced by cultivating them 3-dimensionally on either fibrin or collagen gel (11). In the case where Ad-VEGF-HUVEC were cultured on collagen gel with complete medium, transduced-HUVEC made filopodia extensions into the collagen gel for 5 days (FIG. 22H) and the number of buds was increased in a dose-dependent manner (FIG. 27A). […] Since both VEGF and Notch signaling induce HUVEC budding, we examined whether N1ECDFc inhibited VEGF-induced HUVEC budding (FIG. 22H-I)."}, "[2]": {"settings": "listed as Ad-Notch fusion protein"}, "[3]": {"settings": "listed as Ad-Notch-based fusion protein"}}, "note": "Entries after “also recorded” stand apart in the source; their conditions may differ."}
{"molecule": "N1ECDFc: Notch-based fusion protein or decoy: extracellular domain of Notch1 containing the EGF-repeats fused to the Fc portion of an antibody (protein, left off: a dimerising Fc or GST, Notch-based fusion protein or decoy: extracellular domain of Notch1 containing the EGF-repeats fused to the Fc portion of an antibody) ARGLRCSQPSGTCLNGGRCEVANGTEACVCSGAFVGQRCQDPSPCLSTPCKNAGTCYVVDHGGIVDYACSCPLGFSGPLCLTPLANACLANPCRNGGTCDLLTLTEYKCRCPPGWSGKSCQQADPCASNPCANGGQCLPFESSYICGCPPGFHGPTCRQDVNECSQNPGLCRHGGTCHNEIGSYRCACRATHTGPHCELPYVPCSPSPCQNGGTCRPTGDTTHECACLPGFAGQNCEENVDDCPGNNCKNGGACVDGVNTYNCRCPPEWTGQYCTEDVDECQLMPNACQNAGTCHNSHGGYNCVCVNGWTGEDCSDNIDDCASAACFQGATCHDRVASFYCECPHGRTGLLCHLNDACISNPCNEGSNCDTNPVNGKAICTCPRGYTGPACSQDVDECALGANPCEHAGKCLNTLGSFECQCLQGYTGPRCEIDVNECISNPCQNDATCLDQIGEFQCICMPGYEGVYCEINTDECASSPCLHNGRCVDKINEFLCQCPKGFSGHLCQYDVDECASTPCKNGAKCLDGPNTYTCVCTEGYTGTHCEVDIDECDPDPCHIGLCKDGVATFTCLCQPGYTGHHCETNINECHSQPCRHGGTCQDRDNYYLCLCLKGTTGPNCEINLDDCASNPCDSGTCLDKIDGYECACEPGYTGSMCNVNIDECAGSPCHNGGTCEDGIAGFTCRCPEGYHDPTCLSEVNECNSNPCIHGACRDGLNGYKCDCAPGWSGTNCDINNNECESNPCVNGGTCKDMTSGYVCTCREGFSGPNCQTNINECASNPCLNQGTCIDDVAGYKCNCPLPYTGATCEVVLAPCATSPCKNSGVCKESEDYESFSCVCPTGWQGQTCEIDINECVKSPCRHGASCQNTNGSYRCLCQAGYTGRNCESDIDDCRPNPCHNGGSCTDGVNAAFCDCLPGFQGAFCEEDINECATNPCQNGANCTDCVDSYTCTCPTGFNGIHCENNTPDCTESSCFNGGTCVDGINSFTCLCPPGFTGSYCQYDVNECDSRPCLHGGTCQDSYGTYKCTCPQGYTGLNCQNLVRWCDSAPCKNGGKCWQTNTQYHCECRSGWTGFNCDVLSVSCEVAAQKRGIDVTLLCQHGGLCVDEEDKHYCHCQAGYTGSYCEDEVDECSPNPCQNGATCTDYLGGFSCKCVAGYHGSNCSEEINECLSQPCQNGGTCIDLTNTYKCSCPRGTQGVHCEINVDDCHPPLDPASRSPKCFNNGTCVDQVGGYTCTCPPGFVGERCEGDVNECLSNPCDPRGTQNCVQRVNDFHCECRAGHTGRRCESVINGCRGKPCRNGGVCAVASNTARGFICRCPARFEGATCENDARTCGSLRCLNGGTCISGPRSPTCLCLGSFTGPECQFPASSPCVGSNPCYNQGTCEPTSESPFYRCLCPAKFNGLLCHILDYSFTDLGPG", "values": [{"measurement": "Inhibition of VEGF-induced CBF1 promoter activity", "setting": "[1]; 24 hr after reporter gene transfection", "value": 60, "unit": "%"}, {"measurement": "Inhibition of VEGF-induced CBF1 promoter activity", "setting": "[1]; 48 hr after reporter gene transfection", "value": 90, "unit": "%"}, {"measurement": "Effect on VEGF-induced CBF1 promoter / CSL luciferase activity", "setting": "[1]; listed as Ad-N1ECDFc", "value": "clearly decreased CSL luciferase activity induced by VEGF"}, {"measurement": "Effect on VEGF-induced CBF1 promoter / CSL luciferase activity", "setting": "[1]; [2]", "value": "clearly reduced activation of CBF1 promoter activity"}, {"measurement": "Effect on VEGF-induced CBF1 promoter / CSL luciferase activity", "setting": "[1]; [3]", "value": "clearly reduced activation of CBF1 promoter activity"}, {"measurement": "MOI dependence of the inhibitory activity on VEGF-induced CBF1 promoter activity", "setting": "[1]; co-infection with Ad-VEGF in HUVEC", "value": "dependent on MOI"}, {"measurement": "Inhibition of VEGF-induced HUVEC budding", "setting": "Ad-VEGF-infected HUVEC", "value": "clearly inhibited"}, {"measurement": "Inhibition of VEGF-induced HUVEC budding", "setting": "Ad-VEGF-infected HUVEC; listed as Ad-N1ECDFc", "value": "clearly inhibited; also recorded: inhibition of budding"}, {"measurement": "Inhibition of VEGF-induced HUVEC budding", "setting": "Ad-VEGF-infected HUVEC; listed as Notch fusion protein", "value": "clearly inhibited; also recorded: could inhibit VEGF-induced budding"}, {"measurement": "Cell number in VEGF-induced HUVEC budding assay", "setting": "Ad-VEGF-infected HUVEC; co-transduction with Ad-VEGF", "value": "without affecting cell number"}, {"measurement": "Effect of fusion protein adenovirus alone on HUVEC morphology / bud formation", "setting": "Ad-VEGF-infected HUVEC; listed as Ad-N1ECDFc", "value": "Neither Ad-LacZ or Ad-N1ECDFc-transduced HUVEC formed buds"}, {"measurement": "Effect of fusion protein adenovirus alone on HUVEC morphology / bud formation", "setting": "Ad-VEGF-infected HUVEC; [2]", "value": "had less effect on morphology"}, {"measurement": "Effect of fusion protein adenovirus alone on HUVEC morphology / bud formation", "setting": "Ad-VEGF-infected HUVEC; [3]", "value": "had less effect on morphology"}]}
